The record followed here is the supplement of paper PMC11246515.

± gives the standard deviation of the averaged measurements.

A short description of this data set: total protein half-life in vivo (active degradation + dilution); higher = more stable protein.
The mark [1] stands for this setting: E. coli NCM3722 delta-clpP delta-lon delta-hslV, growth: N-lim chemostat, doubling time 6 h.
The mark [2] stands for this setting: E. coli NCM3722 delta-clpP, growth: N-lim chemostat, doubling time 6 h.
[3] abbreviates: E. coli NCM3722 delta-hslV, growth: N-lim chemostat, doubling time 6 h.
[4] abbreviates: E. coli NCM3722 delta-lon, growth: N-lim chemostat, doubling time 6 h.
Setting [5] is: E. coli NCM3722 delta-smpB, growth: N-lim chemostat, doubling time 6 h.
[6] abbreviates: wild type E. coli NCM3722, growth: C-lim chemostat, doubling time 3 h.
Where [7] appears, read: wild type E. coli NCM3722, growth: C-lim chemostat, doubling time 6 h.
The mark [8] stands for this setting: wild type E. coli NCM3722, growth: C-lim chemostat, doubling time 12 h.
[9] abbreviates: wild type E. coli NCM3722, growth: N-lim chemostat, doubling time 6 h.
The mark [10] stands for this setting: wild type E. coli NCM3722, growth: N-lim chemostat, doubling time 12 h.
The mark [11] stands for this setting: wild type E. coli NCM3722, growth: P-lim chemostat, doubling time 6 h.
Where [12] appears, read: wild type E. coli NCM3722, growth: P-lim chemostat, doubling time 12 h.

On to “MSGGLVTAAYIVAAILFIFSLAGLSKHETSRQGNNFGIAGMAIALIATIFGPDTGNVGWILLAMVIGGAIGIRLAKKVEMTEMPELVAILHSFVGLAAVLVGFNSYLHHDAGMAPILVNIHLTEVFLGIFIGAVTFTGSVVAFGKLCGKISSKPLMLPNRHKMNLAALVVSFLLLIVFVRTDSVGLQVLALLIMTAIALVFGWHLVASIGGADMPVVVSMLNSYSGWAAAAAGFMLSNDLLIVTGALVGSSGAILSYIMCKAMNRSFISVIAGGFGTDGSSTGDDQEVGEHREITAEETAELLKNSHSVIITPGYGMAVAQAQYPVAEITEKLRARGINVRFGIHPVAGRLPGHMNVLLAEAKVPYDIVLEMDEINDDFADTDTVLVIGANDTVNPAAQDDPKSPIAGMPVLEVWKAQNVIVFKRSMNTGYAGVQNPLFFKENTHMLFGDAKASVDAILKAL [P0AB67]”, for which the “total protein half-life in vivo” value reads like this: under setting [1], 6.55 ± 0.55 h; under setting [2], 6.742 ± 0.019 h; under setting [3], 6.72 ± 1.3 h; under setting [4], 5.57 ± 0.22 h; under setting [5], 6.05 ± 0.38 h; under setting [6], 3.36 ± 0.3 h. The “total protein half-life in vivo” value is, setting by setting: under setting [7], 6.08 ± 1.6 h; under setting [8], 14.8 ± 0.91 h; under setting [9], 6.02 ± 0.96 h; under setting [10], 11.7 ± 0.14 h; under setting [11], 6.5 ± 0.41 h; under setting [12], 11.6 ± 1.1 h.
Consider “MNIRRKNRLWIACAVLAGLALTIGLVLYALRSNIDLFYTPGEILYGKRETQQMPEVGQRLRVGGMVMPGSVQRDPNSLKVTFTIYDAEGSVDVSYEGILPDLFREGQGVVVQGELEKGNHILAKEVLAKHDENYTPPEVEKAMEANHRRPASVYKDPAS”, for which the “total protein half-life in vivo” value is, setting by setting: under setting [1], 5.21 ± 0.82 h; under setting [2], 4.46 h; under setting [3], 4.36 ± 0.36 h; under setting [4], 4.62 ± 0.13 h; under setting [5], 4.65 ± 0.1 h; under setting [6], 2.91 ± 0.059 h. Moreover, the “total protein half-life in vivo” value came out at 6.09 ± 0.43 h under setting [7]; 8.92 ± 0.19 h under setting [8]; 4.31 ± 0.63 h under setting [9]; 9.42 ± 2.7 h under setting [10]; 4.67 h under setting [11]; 10.05 ± 0.046 h under setting [12].
Regarding “MPKKNEAPASFEKALSELEQIVTRLESGDLPLEEALNEFERGVQLARQGQAKLQQAEQRVQILLSDNEDASLTPFTPDNE [P0A8G9]”, the “total protein half-life in vivo” value reads like this: under setting [1], 7.56 h; under setting [2], 5.9 h; under setting [3], 6.62 h; under setting [7], 6.16 ± 0.35 h; under setting [8], 14.4 h; under setting [9], 5.09 ± 0.59 h. Besides, the “total protein half-life in vivo” value amounted to 4.86 ± 0.049 h under setting [11] and 14.2 ± 1.7 h under setting [12].
In the case of “MPELPEVETSRRGIEPHLVGATILHAVVRNGRLRWPVSEEIYRLSDQPVLSVQRRAKYLLLELPEGWIIIHLGMSGSLRILPEELPPEKHDHVDLVMSNGKVLRYTDPRRFGAWLWTKELEGHNVLTHLGPEPLSDDFNGEYLHQKCAKKKTAIKPWLMDNKLVVGVGNIYASESLFAAGIHPDRLASSLSLAECELLARVIKAVLLRSIEQGGTTLKDFLQSDGKPGYFAQELQVYGRKGEPCRVCGTPIVATKHAQRATFYCRQCQK”, the “total protein half-life in vivo” value runs as follows: under setting [1], 6.1 ± 0.54 h; under setting [2], 6.39 ± 0.79 h; under setting [3], 6.03 h; under setting [4], 6.39 ± 1.2 h; under setting [5], 5.63 ± 0.36 h; under setting [6], 2.58 ± 0.11 h. The “total protein half-life in vivo” value came out at 12.7 ± 2.8 h under setting [8]; 6.31 ± 0.42 h under setting [9]; 12.8 ± 1.4 h under setting [10]; 6.46 ± 0.51 h under setting [11]; 14.2 ± 0.28 h under setting [12].
For “MLKFILRRCLEAIPTLFILITISFFMMRLAPGSPFTGERTLPPEVMANIEAKYHLNDPIMTQYFSYLKQLAHGDFGPSFKYKDYSVNDLVASSFPVSAKLGAAAFFLAVILGVSAGVIAALKQNTKWDYTVMGLAMTGVVIPSFVVAPLLVMIFAIILHWLPGGGWNGGALKFMILPMVALSLAYIASIARITRGSMIEVLHSNFIRTARAKGLPMRRIILRHALKPALLPVLSYMGPAFVGIITGSMVIETIYGLPGIGQLFVNGALNRDYSLVLSLTILVGALTILFNAIVDVLYAVIDPKIRY [P0AFH2]”, the “total protein half-life in vivo” value by setting is: under setting [1], 6.19 ± 0.36 h; under setting [2], 6.06 ± 0.43 h; under setting [3], 6.31 ± 0.27 h; under setting [4], 4.86 ± 1.2 h; under setting [5], 5.88 ± 0.32 h; under setting [6], 2.81 ± 0.28 h. Further, the “total protein half-life in vivo” value under setting [7] stood at 5.75 ± 0.39 h; the “total protein half-life in vivo” value under setting [8] worked out at 13.4 ± 3.6 h; the “total protein half-life in vivo” value under setting [9] amounted to 4.92 ± 1.4 h; the “total protein half-life in vivo” value under setting [10] is 13.5 h; the “total protein half-life in vivo” value under setting [11] was found to be 5.69 ± 1.4 h; the “total protein half-life in vivo” value under setting [12] was determined as 9.81 ± 1.4 h.
As for “MAHRPRWTLSQVTELFEKPLLDLLFEAQQVHRQHFDPRQVQVSTLLSIKTGACPEDCKYCPQSSRYKTGLEAERLMEVEQVLESARKAKAAGSTRFCMGAAWKNPHERDMPYLEQMVQGVKAMGLEACMTLGTLSESQAQRLANAGLDYYNHNLDTSPEFYGNIITTRTYQERLDTLEKVRDAGIKVCSGGIVGLGETVKDRAGLLLQLANLPTPPESVPINMLVKVKGTPLADNDDVDAFDFIRTIAVARIMMPTSYVRLSAGREQMNEQTQAMCFMAGANSIFYGCKLLTTPNPEEDKDLQLFRKLGLNPQQTAVLAGDNEQQQRLEQALMTPDTDEYYNAAAL”, the “total protein half-life in vivo” value by setting is: under setting [1], 3.43 ± 0.23 h; under setting [2], 2.236 ± 0.018 h; under setting [3], 0.669 h; under setting [4], 0.723 ± 0.084 h; under setting [5], 0.799 ± 0.048 h; under setting [6], 0.8031 ± 0.0044 h. The “total protein half-life in vivo” value was 1.3 ± 0.08 h under setting [7]; 1.44 ± 0.52 h under setting [8]; 0.897 ± 0.17 h under setting [9]; 1.09 ± 0.08 h under setting [10]; 1.44 ± 0.36 h under setting [11]; 2.68 ± 0.76 h under setting [12].
With “MFDSTLNPLWQRYILAVQEEVKPALGCTEPISLALAAAVAAAELEGPVERVEAWVSPNLMKNGLGVTVPGTGMVGLPIAAALGALGGNANAGLEVLKDATAQAIADAKALLAAGKVSVKIQEPCDEILFSRAKVWNGEKWACVTIVGGHTNIVHIETHDGVVFTQQACVAEGEQESPLTVLSRTTLAEILKFVNEVPFAAIRFILDSAKLNCALSQEGLSGKWGLHIGATLEKQCERGLLAKDLSSSIVIRTSAASDARMGGATLPAMSNSGSGNQGITATMPVVVVAEHFGADDERLARALMLSHLSAIYIHNQLPRLSALCAATTAAMGAAAGMAWLVDGRYETISMAISSMIGDVSGMICDGASNSCAMKVSTSASAAWKAVLMALDDTAVTGNEGIVAHDVEQSIANLCALASHSMQQTDRQIIEIMASKAR”, under setting [1], the “total protein half-life in vivo” value was 4.74 ± 0.075 h.
